Article PMC2645378 (Virology Journal, 2008)
Values joined by “and” are separate entries in the source; they are usually repeats but may differ in a detail not shown here. Identical values can stand only once.

Biological target: the molecule itself

B1: FLAG-tagged soluble Lassa virus glycoprotein 1 (sGP1-FLAG) (natural protein)
chain: TSLYKGVYELQTLELNMETLNMTMPLSCTKNNSHHYIMVGNETGLELTLTNTSIINHKFCNLSDAHKKNLYDHALMSIISTFHLSIPNFNQYEAMSCDFNGGKISVQYNLSHSYAGDAANHCGTVANGVLQTFMRMAWGGSYIALDSGRGNWDCIMTSYQYLIIQNTTWEDHCQFSRPSPIGYLGLLSQRTRDIYISRRLL
In the case of B1, the “stoichiometry N” value is reported as 2 and 3.
